Assay results published in CN112142841A (JIANGSU QUANXIN BIOMEDICAL CO LTD, dated 2020).

Key:
[1] = molecular target: T1, 人IL-17A蛋白 (Example 4, sandwich ELISA) (human, UniProt Q16552 24-155); test: sandwich ELISA: QX002N coated, human IL-17A 0-10 ng/ml, biotin-labelled second antibody for detection, SA-HRP
T1 construct: also called 重组人IL-17A蛋白标准品; recombinant human IL-17A protein standard
T1 sequence (looked up): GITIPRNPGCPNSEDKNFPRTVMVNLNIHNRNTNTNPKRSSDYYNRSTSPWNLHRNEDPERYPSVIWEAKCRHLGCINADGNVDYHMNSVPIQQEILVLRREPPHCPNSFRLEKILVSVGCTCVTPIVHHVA

[2] = molecular target: T2, 人IL-17A (His-tag，购自Novoprotein) (human, UniProt Q16552 24-155); test: ELISA: antibody coated, serially diluted His-tagged human IL-17A, anti-His-HRP detection
T2 construct: Bought His-tagged protein, detected with an HRP-labelled anti-His antibody; also called human IL-17A; hIL-17A; not shown: His-tag
T2 sequence (looked up): T1 sequence (looked up)

B1: 抗人IL-17A单克隆抗体 (anti-human IL-17A monoclonal antibody) (antibody, V domains shown)
VH: QSLEESGGDLVQPEGSLALTCKASGFDLSSYYYMCWVRQAPGKGLEWIACIHTGNGYPYYANWAKGRFTISKTSSTTVTLQLTSLTVADTATYFCARPVGGYDYAMDLWGPGTLVTVSS
VL: AYDMTQTPASVSAAVGGTVTINCQASEDISSQLSWYQQRPGQPPKLLIYKASTLASGVPSRFRGSGSGTQFTLTISGVQCADAATYYCQQSASYFNVANTFGGGTEVVVKG
notes: also called 第二抗体; 检测抗体
binding result [1]: binds
binding result [2]: binds
